The source of these data is patent US20220064276A1 (SCHOLAR ROCK, published 2022).

Experiment [1] has as its target T1, human LTBP1-proTGFβ1 complex (human, UniProt Q14766 347-1721; P01137 30-390).
T1 construct: Large latent complex: one presenting molecule disulfide-linked to a proTGFβ1 dimer; also called Hu LTBP1-proTGFβ1; huLTBP1 proTGFβ1
The experiment can be described thus: Octet BLI, IgG captured. The method, then:
(§1) LTBP complex-specific antibodies from the first round of affinity maturation/optimization (SR-AB14, SR-AB16, SR-AB17, SR-AB18, SR-AB19) were selected for a second round of affinity maturation/optimization (i.e., CDR-H3 mutagenesis as described herein) and particular progeny antibodies (SR-AB20, SR-AB21, SR-AB22, SR-AB23, SR-AB24, SR-AB25, SR-AB26, SR-AB27, SR-AB28, and SR-AB29) were assessed for their ability to bind various proTGFβ1 constructs. Binding affinities of the optimized antibodies were measured by Octet against human LTBP1-proTGFβ1, human LTBP3-proTGFbl, mouse LTBP1-proTGFβ1, mouse LTBP3-proTGFbl, and GARP-proTGFβ1 complexes, essentially as described in Example 6. […] The antigens were allowed to associate for 3 minutes followed by a 5-minute dissociation. Kinetics buffer (ForteBio®) was used throughout the experiment, and KD was determined using a 1:1 fitting model for each antibody antigen pair.
In general terms: In BLI a coated tip is dipped into the sample, and binding shifts an interference pattern.

Experiment [2] addresses T2, human LTBP3-proTGFβ1 complex (human, UniProt Q9NS15 44-1303; P01137 30-390, limits assumed).
T2 construct: Exemplary entries; also called Hu LTBP3-proTGFβ1; huLTBP3 proTGFb1
The experiment can be described thus: Octet BLI, IgG captured. As to the method:
as §1

The target in experiment [3] is T3, mouse LTBP3-proTGFβ1 complex (mouse, UniProt Q61810 41-1245; P04202 30-390, limits assumed).
T3 construct: Exemplary entries; also called Mo LTBP3-proTGFβ1; Murine LTBP3 proTGFb1
The experiment can be described thus: Octet BLI, IgG captured. The method, then: as §1

Experiment [4] has as its target T4, mouse LTBP1-proTGFβ1 complex (mouse, UniProt Q8CG19 339-1712; P04202 30-390).
T4 construct: Exemplary entries; In the cell assays expressed from mouse LTBP1S and mouse proTGFb1 plasmids in LN229 cells; also called Mo LTBP1-proTGFβ1; MuLTBP1-ProTGFb1
The experiment is described as follows: Octet BLI, IgG captured. The method, then: as §1
Target sequence in this assay (Q8CG19 339-1712 limits assumed, chain 1 of 2): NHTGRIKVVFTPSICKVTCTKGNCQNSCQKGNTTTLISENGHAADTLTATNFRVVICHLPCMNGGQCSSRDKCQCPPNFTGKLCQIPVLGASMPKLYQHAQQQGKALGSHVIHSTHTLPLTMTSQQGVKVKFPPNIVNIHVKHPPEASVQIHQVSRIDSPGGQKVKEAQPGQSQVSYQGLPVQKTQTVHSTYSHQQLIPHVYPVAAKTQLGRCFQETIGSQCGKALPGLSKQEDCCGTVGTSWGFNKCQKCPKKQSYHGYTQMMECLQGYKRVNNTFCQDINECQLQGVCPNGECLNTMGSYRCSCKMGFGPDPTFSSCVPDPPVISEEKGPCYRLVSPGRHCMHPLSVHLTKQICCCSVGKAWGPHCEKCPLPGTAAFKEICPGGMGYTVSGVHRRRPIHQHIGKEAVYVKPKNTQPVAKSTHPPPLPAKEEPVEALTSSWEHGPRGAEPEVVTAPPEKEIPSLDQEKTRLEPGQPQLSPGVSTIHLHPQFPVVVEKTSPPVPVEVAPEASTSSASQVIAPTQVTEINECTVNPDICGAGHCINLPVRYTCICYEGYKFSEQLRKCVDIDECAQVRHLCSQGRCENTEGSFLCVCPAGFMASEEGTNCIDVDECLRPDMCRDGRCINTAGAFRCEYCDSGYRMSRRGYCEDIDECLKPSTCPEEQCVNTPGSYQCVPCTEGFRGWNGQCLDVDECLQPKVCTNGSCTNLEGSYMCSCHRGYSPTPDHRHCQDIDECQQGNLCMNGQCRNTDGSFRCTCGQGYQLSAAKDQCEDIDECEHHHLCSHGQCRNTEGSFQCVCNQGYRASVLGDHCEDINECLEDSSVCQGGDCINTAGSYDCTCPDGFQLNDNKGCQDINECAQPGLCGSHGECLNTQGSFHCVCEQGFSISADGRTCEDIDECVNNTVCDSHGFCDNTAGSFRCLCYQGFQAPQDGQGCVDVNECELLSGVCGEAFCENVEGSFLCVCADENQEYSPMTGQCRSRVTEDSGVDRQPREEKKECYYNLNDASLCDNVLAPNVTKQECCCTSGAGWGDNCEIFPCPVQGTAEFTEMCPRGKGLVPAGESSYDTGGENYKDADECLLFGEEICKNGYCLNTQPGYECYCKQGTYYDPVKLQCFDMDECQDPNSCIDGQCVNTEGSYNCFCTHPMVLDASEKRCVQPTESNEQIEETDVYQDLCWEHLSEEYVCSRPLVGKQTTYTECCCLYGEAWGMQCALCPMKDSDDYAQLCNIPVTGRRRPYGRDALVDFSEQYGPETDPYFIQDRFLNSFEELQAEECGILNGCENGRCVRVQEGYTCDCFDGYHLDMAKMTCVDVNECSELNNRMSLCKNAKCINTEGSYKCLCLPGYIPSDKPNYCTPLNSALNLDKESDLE
Target sequence in this assay (P04202 30-390 limits assumed, chain 2 of 2): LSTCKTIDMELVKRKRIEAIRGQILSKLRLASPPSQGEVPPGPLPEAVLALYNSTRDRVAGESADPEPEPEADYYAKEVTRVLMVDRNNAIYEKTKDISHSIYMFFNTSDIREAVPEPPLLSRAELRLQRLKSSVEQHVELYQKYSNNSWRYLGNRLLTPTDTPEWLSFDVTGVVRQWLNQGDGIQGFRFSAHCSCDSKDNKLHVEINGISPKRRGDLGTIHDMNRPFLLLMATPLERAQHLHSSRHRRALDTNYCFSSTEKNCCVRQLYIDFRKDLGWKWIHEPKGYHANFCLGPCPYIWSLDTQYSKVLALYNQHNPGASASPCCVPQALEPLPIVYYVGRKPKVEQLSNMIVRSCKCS

In experiment [5] the target is LTBP-proTGFβ1: transfected human proTGFβ1 presented by endogenous LTBP1/3 of LN229 cells (human). The experiment can be described thus: cell-based or functional assay.
Experiment [6] addresses T4, mouse LTBP1-proTGFβ1 complex. The experiment can be described thus: cell-based or functional assay.
Target sequence in this assay (Q8CG19 339-1712 limits assumed, chain 1 of 2): as the sequence (Q8CG19 339-1712 limits assumed, chain 1 of 2) above
Target sequence in this assay (P04202 30-390 limits assumed, chain 2 of 2): as the sequence (P04202 30-390 limits assumed, chain 2 of 2) above
The target in experiment [7] is T5, human LRRC33-proTGFβ1 complex (human, UniProt Q86YC3 19-650; P01137 30-390, limits assumed).
T5 construct: Exemplary entries; also called huLRRC33 proTGFb1; HuLRRC33-ProTGFb1
T5 sequence (Q86YC3 19-650 limits assumed, chain 1 of 2): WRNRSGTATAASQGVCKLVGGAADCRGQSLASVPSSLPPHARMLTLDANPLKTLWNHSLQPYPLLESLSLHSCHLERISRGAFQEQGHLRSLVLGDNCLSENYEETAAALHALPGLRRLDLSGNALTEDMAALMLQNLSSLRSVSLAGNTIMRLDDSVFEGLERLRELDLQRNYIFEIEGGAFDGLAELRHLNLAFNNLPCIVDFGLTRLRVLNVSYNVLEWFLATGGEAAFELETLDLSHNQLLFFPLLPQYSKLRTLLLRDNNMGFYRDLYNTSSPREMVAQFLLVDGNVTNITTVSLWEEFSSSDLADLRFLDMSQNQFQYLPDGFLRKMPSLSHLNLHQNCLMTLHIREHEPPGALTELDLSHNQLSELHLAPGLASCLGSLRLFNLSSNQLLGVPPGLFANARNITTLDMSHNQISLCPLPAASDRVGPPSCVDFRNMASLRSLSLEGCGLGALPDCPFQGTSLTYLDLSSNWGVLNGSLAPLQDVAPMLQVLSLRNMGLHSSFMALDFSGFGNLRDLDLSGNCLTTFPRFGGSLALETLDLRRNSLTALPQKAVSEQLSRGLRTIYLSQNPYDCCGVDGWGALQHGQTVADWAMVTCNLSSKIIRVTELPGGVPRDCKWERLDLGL
T5 sequence (P01137 30-390 limits assumed, chain 2 of 2): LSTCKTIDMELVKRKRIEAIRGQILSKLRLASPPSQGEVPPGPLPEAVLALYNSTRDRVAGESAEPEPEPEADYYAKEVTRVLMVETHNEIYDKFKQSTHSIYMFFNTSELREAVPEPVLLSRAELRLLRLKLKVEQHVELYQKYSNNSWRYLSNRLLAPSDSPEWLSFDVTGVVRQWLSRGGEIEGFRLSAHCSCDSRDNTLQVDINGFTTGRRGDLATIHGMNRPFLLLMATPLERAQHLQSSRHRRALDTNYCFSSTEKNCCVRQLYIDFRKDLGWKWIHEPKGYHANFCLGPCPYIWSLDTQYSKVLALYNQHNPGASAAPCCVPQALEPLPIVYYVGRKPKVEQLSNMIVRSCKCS
The experiment can be described thus: Octet, antibody immobilized.

For experiment [8], the target named is T6, human GARP-proTGFβ1 complex (human, UniProt Q14392 18-627; P01137 30-390, limits assumed).
T6 construct: Exemplary entries; also called Hu GARP-proTGFβ1; huGARP proTGFb1
T6 sequence (Q14392 18-627 limits assumed, chain 1 of 2): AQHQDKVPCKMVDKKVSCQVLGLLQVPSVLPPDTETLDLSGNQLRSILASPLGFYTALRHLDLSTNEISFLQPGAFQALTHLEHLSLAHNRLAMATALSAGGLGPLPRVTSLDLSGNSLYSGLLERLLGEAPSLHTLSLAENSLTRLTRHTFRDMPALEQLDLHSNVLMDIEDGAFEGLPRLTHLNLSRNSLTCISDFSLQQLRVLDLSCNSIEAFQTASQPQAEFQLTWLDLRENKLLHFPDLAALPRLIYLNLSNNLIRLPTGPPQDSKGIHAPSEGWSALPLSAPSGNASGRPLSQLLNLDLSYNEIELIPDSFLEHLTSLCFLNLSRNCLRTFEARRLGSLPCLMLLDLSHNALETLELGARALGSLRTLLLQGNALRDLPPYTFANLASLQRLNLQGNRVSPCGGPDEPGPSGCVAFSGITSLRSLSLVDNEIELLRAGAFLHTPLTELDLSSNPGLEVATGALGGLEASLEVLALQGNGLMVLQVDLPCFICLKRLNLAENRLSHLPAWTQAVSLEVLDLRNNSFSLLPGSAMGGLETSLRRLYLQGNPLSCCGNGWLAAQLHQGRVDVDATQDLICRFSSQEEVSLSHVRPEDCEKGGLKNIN
T6 sequence (P01137 30-390 limits assumed, chain 2 of 2): as the sequence (P01137 30-390 limits assumed, chain 2 of 2) above
The experiment is described as follows: Octet (bio-layer interferometry), response at 200 nM antigen; 0.1 nm cutoff designates meaningful binding. The method, then: This experiment was performed at 200, 100, 50, and 25 nM human GARP proTGFb1 and human LTBP1 proTGFbl. […] Surface plasmon resonance (SPR)-based assays

The target in experiment [9] is T1, human LTBP1-proTGFβ1 complex. The experiment can be described thus: bio-layer interferometry sensorgrams (y axis nm), concentration series with kinetic table under the panel; concentrations not shown.
For the next experiment, the target named is T7, Rat LTBP1-proTGFβ1 (rat).
T7 construct: the sheet labels the whole complex 'Rat'; Named only on the sheet; The legend says only that SR-AB2 cross-reacts with rodent LTBP1-proTGFβ1
Described as above.

Experiment [10] addresses T4, mouse LTBP1-proTGFβ1 complex. The description is as above.
Target sequence in this assay (P04202 30-390 limits assumed, one chain of several): as the sequence (P04202 30-390 limits assumed, chain 2 of 2) above
The target in experiment [11] is T1, human LTBP1-proTGFβ1 complex. The experiment can be described thus: Octet binning; competitor (immobilized second antibody) SR-AB10. The method, then:
(§2) 500 nM of human LTBP1-proTGFb1 complex was pre-incubated with 1 μM of each test antibody. After an overnight incubation, the LTBP1-proTGFβ1+first antibody was tested for binding to a second antibody which was immobilized to an Anti-Human IgG Fc Capture (AHC) sensor tip at 67 nM. The sensor tip was blocked with a negative control antibody (HuNeg) before seeing the LTBP1-proTGFβ1+first antibody.
(§3) Normalized responses less than 70% or less than 0.7 of the uninhibited interaction were considered antibodies that cross block.

Experiment [12] addresses T6, human GARP-proTGFβ1 complex. The experiment is described as follows: Octet (bio-layer interferometry), yeast expressed IgG1Agly antibody, antigen at a single 100 nM per Example 6.
For experiment [13], the target named is T3, mouse LTBP3-proTGFβ1 complex. The description is as above.
Experiment [14] has as its target T1, human LTBP1-proTGFβ1 complex. The experiment can be described thus: Octet binning; competitor (immobilized second antibody) SR-AB1. As to the method: as §2, §3
The target is the same in experiment [15]. The experiment is described as follows: Octet (bio-layer interferometry), yeast expressed IgG1Agly antibody, antigen at a single 100 nM per Example 6, 1:1 fit; value printed under the panel.
The target in experiment [16] is T4, mouse LTBP1-proTGFβ1 complex. Described as above.
Target sequence in this assay (P04202 30-390 limits assumed, one chain of several): as the sequence (P04202 30-390 limits assumed, chain 2 of 2) above
For experiment [17], the target named is T1, human LTBP1-proTGFβ1 complex. The experiment is described as follows: Octet binning; competitor (immobilized second antibody) SR-AB2. The method, then: as §2, §3
A further experiment deals with T8, mature TGFβ1 (UniProt P01137 279-390).
T8 construct: mature
T8 sequence (P01137 279-390 limits assumed): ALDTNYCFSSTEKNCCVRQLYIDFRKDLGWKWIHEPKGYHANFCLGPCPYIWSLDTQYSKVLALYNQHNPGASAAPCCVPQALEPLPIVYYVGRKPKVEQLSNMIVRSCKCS
The experiment is described as follows: FIG. 2B binding assay.

The next experiment concerns the target T9, proTGFβ1 alone (Homo sapiens (Human), UniProt P01137 30-390).
T9 construct: proTGFβ1 not in complex with a presenting molecule
The experiment is described as follows: ELISA on immobilised antigen (Example 4), RLU, mean ± SD.

A further experiment has as its target T10, LTBP1 alone (Homo sapiens (Human), UniProt Q14766 347-1721).
T10 construct: LTBP1 not in complex with TGFβ1
T10 sequence: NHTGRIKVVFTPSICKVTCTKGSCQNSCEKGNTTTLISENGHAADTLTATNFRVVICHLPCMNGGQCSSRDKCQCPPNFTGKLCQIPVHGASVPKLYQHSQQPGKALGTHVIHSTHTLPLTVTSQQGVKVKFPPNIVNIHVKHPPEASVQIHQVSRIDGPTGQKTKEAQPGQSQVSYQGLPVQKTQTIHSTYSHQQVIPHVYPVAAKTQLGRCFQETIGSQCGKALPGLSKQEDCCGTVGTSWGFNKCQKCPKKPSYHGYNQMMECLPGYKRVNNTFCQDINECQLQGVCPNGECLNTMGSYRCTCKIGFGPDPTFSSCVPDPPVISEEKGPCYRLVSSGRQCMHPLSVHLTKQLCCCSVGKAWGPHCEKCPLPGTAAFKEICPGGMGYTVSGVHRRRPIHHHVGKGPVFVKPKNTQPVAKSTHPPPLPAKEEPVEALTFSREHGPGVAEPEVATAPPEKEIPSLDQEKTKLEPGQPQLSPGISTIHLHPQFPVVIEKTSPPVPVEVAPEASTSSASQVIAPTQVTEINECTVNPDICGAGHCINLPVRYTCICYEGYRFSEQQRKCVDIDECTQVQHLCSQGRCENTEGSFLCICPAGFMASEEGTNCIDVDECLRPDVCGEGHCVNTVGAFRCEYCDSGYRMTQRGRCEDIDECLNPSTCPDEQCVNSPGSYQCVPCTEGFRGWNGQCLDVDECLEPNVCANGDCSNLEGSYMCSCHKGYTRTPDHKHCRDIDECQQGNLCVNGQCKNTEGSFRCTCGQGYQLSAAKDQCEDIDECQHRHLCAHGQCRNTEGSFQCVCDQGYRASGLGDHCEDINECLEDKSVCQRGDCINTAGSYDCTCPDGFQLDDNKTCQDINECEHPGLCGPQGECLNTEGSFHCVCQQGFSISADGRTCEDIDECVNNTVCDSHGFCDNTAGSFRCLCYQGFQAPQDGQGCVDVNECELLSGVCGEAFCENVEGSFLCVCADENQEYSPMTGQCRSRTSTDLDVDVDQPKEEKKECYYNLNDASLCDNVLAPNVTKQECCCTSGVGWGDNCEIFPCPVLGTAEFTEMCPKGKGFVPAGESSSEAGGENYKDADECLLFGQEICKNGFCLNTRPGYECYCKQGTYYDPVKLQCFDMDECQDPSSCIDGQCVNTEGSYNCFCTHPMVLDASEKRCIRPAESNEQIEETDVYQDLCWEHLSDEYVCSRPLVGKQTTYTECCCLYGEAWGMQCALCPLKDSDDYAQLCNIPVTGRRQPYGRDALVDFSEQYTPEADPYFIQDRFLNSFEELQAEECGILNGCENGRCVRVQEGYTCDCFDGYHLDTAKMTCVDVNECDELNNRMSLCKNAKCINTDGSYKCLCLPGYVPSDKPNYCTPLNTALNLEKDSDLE
The experiment is described as above.

Experiment [18] addresses T1, human LTBP1-proTGFβ1 complex. The experiment can be described thus: Octet binning; competitor (immobilized second antibody) SR-AB13. The method, then:
as §2, §3

T1 sequence (P01137 30-390 limits assumed, one chain of several): as the sequence (P01137 30-390 limits assumed, chain 2 of 2) above

B1: SR-AB23 (antibody, IgG1, V domains shown)
VH: QVQLVESGGGVVQPGRSLRLSCAASGFTFRSYVMHWVRQAPGKGLEWVAVISHEGSLKYYADSVKGRFTISRDNSKNTLYLQMNSLRAEDTAVYYCARPRIAARRGGFGYWGQGTLVTVSS
VL: NFMLTQPHSVSESPGKTVTISCTRSSGNIDNNYVQWYQQRPGSSPTTVIYEDNQRPSGVPDRFSGSIDSSSNSASLTISGLKTEDEADYYCQSYDSDNQGVVFGGGTKLTVL
notes: Cycle 2, lineage SR-AB14
In general, Kd refers to the free concentration of one partner at which half of the binding sites on the other are occupied at equilibrium, for simple one-to-one binding. Lower therefore signals higher affinity. With B1, the Kd in [1] is 5.98 nM; in [2], 1.26 nM; in experiment [3] it was 7.93 nM; in [4], 8.38 nM. In addition, the “IC50, endogenous hLTBP assay (CAGA12 luciferase)” value in experiment [5] was determined as 6.04 nM. Moreover, the “IC50, mLTBP1 assay (CAGA12 luciferase)” value in experiment [6] came out at 0.946 nM. The binding result in experiment [7] is listed as “no binding”; in [8], “no binding (tested: 200 nM)”.

B2: SR-AB2 (antibody, V domains shown)
VH: QVQLVQSGAEVKKPGASVKVSCKASGYTFTSYGISWVRQAPGQGLEWMGWISAYNGNTNYAQKLQGRVTMTTDTSTSTAYMELRSLRSDDTAVYYCARAPLGNFDSWGQGTMVTVSS
VL: NFMLTQPHSVSESPGKTVTISCTRSSGSIASNYVQWYQQRPGSSPTTVIYEDNQRPSGVPDRFSGSIDSSSNSASLTISGLKTEDEADYYCQSYDSSNHPVVFGGGTKLTVL
In general, koff refers to the first-order rate constant of dissociation. A lower koff goes with slow dissociation. The term kon denotes a measure of how fast the partners come together. Lower therefore signals slower complex formation. On to B2, for which the equilibrium dissociation constant (Kd) in experiment [9] was determined as 188 nM; with Rat LTBP1-proTGFβ1, 174 nM; in [10], 204 nM; in [15], 118 nM; in experiment [16], 245 nM. For the same molecule, the results for the kobs (in [9]; with Rat LTBP1-proTGFβ1; in experiment [10]) were 0.0142 s⁻¹, 0.0176 s⁻¹ and 0.0134 s⁻¹, respectively. Further, the koff worked out at 0.00502 s⁻¹ in [9], 0.00582 s⁻¹ with Rat LTBP1-proTGFβ1 and 0.00517 s⁻¹ in experiment [10]. The values for the kon (in [9]; with Rat LTBP1-proTGFβ1; in [10]) were 28400 M⁻¹ s⁻¹, 41900 M⁻¹ s⁻¹ and 26600 M⁻¹ s⁻¹, respectively. Moreover, the normalized response in experiment [11] was 1.54 fraction of uninhibited binding; in experiment [14] it was 1.11 fraction of uninhibited binding; in experiment [17], 0.47 fraction of uninhibited binding; in experiment [18] it was 1.31 fraction of uninhibited binding. Further, the binding result is given as “no binding (tested: 100 nM)” in experiment [12]; “no binding (tested: 100 nM)” in experiment [13]; “no binding” with mature TGFβ1; “no binding” with proTGFβ1 alone; “no binding” with LTBP1 alone.
